# Literature values as cited in patent publication US5814460A, “Method for generating and screening useful peptides” (Diatide, Inc., priority 1995, dated 1998).
# Read-outs that look alike come from different tables or passages of the source.
# What was measured:
# [1] = target: fibrin polymerization (Homo sapiens, UniProt P02679); details: literature statement
# [2] = target: human fibrinogen (Homo sapiens, UniProt P02679); details: read-out: affinities for human fibrinogen
# [3] = target: fibrinogen receptor (GpIIb IIIa) (Homo sapiens, UniProt P05106+P08514)
# [4] = target: T1, Gastricsin (hum.) (Homo sapiens, UniProt P20142); details: Table 6
# T1 sequence (P20142 60-388): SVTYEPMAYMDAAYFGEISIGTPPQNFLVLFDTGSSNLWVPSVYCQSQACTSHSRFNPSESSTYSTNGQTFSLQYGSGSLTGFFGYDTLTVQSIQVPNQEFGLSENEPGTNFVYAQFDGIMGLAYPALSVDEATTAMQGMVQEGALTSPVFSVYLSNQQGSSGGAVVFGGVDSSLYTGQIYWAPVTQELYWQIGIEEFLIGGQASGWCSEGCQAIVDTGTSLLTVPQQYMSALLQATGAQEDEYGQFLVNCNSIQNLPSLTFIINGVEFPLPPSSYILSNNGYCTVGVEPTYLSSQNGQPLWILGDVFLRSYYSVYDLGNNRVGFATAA
# [5] = target: Calmodulin (Homo sapiens, UniProt P0DP23); details: Table 6
# [6] = target: T2, streptavidin (Streptomyces avidinii, UniProt P22629); details: read-out: Kd of streptavidin complex
# T2 construct: purchased Sigma Chemical Company
# [7] = target: CD4 (Homo sapiens, UniProt P01730); details: Table 6
# [8] = target: Angiotensin II Receptor; details: Table 6
# [9] = target: Fibronectin (rat) (human); details: Table 6
# [10] = target: Urokinase Receptor (hum.) (Homo sapiens, UniProt Q03405); details: Table 6
# [11] = target: Porcine PLA2 (Sus scrofa, UniProt P00592); details: Table 6
# [12] = target: Pepsin (hum.) (Homo sapiens, UniProt P0DJD7); details: Table 6
# [13] = Table 6, target GpIIb IIa, read-out: Kd
# fibrin polymerization, sequence (P02671 20-629 partner limits assumed): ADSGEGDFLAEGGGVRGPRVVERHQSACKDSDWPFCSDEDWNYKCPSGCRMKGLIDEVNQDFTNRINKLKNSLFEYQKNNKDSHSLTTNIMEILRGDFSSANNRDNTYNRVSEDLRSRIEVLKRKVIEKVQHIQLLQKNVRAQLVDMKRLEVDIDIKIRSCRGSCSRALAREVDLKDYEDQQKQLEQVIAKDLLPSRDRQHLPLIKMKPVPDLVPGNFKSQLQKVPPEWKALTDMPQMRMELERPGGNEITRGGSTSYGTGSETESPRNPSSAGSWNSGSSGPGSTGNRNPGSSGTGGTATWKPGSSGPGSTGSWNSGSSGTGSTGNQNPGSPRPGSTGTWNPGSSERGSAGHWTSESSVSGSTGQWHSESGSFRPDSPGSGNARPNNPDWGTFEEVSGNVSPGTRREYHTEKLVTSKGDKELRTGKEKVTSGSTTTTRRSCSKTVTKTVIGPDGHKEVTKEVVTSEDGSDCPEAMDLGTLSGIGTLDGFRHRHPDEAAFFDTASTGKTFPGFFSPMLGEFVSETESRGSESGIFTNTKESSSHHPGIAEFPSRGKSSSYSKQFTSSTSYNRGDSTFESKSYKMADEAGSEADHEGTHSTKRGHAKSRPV
# fibrin polymerization, sequence (P02675 31-491 partner): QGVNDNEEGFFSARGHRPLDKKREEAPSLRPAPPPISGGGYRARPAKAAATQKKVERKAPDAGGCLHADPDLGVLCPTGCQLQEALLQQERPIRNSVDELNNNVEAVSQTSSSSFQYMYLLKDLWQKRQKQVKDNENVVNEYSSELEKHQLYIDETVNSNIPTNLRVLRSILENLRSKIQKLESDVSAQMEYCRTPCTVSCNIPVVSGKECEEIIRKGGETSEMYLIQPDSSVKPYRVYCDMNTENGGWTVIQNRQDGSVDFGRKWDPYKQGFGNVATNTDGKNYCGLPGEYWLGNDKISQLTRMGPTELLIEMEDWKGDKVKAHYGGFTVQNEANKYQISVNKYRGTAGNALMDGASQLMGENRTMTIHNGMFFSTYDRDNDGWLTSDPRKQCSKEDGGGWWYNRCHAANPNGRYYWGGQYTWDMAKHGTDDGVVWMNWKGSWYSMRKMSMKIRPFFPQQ
# fibrin polymerization, sequence (P02679 27-433 limits assumed): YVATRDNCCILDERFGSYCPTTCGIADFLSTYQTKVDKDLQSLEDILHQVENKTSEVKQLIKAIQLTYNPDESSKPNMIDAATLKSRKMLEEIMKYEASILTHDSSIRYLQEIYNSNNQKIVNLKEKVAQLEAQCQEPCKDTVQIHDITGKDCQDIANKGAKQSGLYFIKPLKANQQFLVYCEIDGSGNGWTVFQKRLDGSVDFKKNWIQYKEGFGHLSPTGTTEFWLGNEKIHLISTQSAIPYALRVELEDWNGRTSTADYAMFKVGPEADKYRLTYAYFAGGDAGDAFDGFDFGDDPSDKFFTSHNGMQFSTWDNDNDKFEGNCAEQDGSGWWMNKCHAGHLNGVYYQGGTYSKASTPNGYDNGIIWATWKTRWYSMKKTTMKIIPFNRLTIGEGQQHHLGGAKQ
# human fibrinogen, sequence (P02671 20-629 partner limits assumed): as the sequence (P02671 20-629 partner limits assumed) above
# human fibrinogen, sequence (P02675 31-491 partner): as the sequence (P02675 31-491 partner) above
# human fibrinogen, sequence (P02679 27-433 limits assumed): as the sequence (P02679 27-433 limits assumed) above
# Pepsin (hum.), sequence (P0DJD7 63-388): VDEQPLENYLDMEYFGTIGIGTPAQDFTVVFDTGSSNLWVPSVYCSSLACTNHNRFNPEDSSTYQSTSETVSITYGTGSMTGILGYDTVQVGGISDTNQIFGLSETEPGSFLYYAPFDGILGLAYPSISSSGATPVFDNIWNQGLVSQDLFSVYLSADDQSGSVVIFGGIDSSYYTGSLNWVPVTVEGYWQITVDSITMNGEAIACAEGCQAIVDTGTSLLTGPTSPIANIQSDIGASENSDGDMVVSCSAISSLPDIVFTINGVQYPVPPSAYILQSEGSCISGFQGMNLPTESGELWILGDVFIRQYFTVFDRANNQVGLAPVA
# Urokinase Receptor (hum.), sequence (Q03405 23-335): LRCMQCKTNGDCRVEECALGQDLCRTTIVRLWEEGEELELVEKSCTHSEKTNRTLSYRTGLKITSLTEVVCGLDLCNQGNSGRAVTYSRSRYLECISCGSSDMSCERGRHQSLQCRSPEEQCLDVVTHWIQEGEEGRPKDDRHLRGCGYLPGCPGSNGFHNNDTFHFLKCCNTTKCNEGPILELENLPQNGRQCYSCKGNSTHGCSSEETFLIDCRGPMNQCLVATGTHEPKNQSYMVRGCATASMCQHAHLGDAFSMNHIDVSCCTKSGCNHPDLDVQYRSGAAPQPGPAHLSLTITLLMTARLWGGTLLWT
# T2 sequence (P22629 25-183): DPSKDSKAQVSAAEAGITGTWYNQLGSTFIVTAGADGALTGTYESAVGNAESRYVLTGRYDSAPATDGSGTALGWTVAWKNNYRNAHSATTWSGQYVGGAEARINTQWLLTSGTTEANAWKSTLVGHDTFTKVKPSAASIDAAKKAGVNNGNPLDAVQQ
# Fibronectin (rat) (human), sequence (P04937 1540-1633 limits assumed): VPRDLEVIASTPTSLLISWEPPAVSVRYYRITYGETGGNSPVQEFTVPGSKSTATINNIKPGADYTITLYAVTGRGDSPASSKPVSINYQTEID
# Porcine PLA2, sequence (P00592 23-146): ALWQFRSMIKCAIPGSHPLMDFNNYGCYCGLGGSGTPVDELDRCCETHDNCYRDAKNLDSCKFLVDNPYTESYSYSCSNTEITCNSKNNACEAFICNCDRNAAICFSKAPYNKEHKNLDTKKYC
compound,measurement,setting,value
GPRV: synthetic peptide beginning with GPR that binds fibrinogen,inhibition of fibrin polymerization,[1],inhibit fibrin polymerization
same,Kd,[2],100 µM
GPRP,inhibition of fibrin polymerization,[1],inhibit fibrin polymerization
Arg-Gly-Asp-Trp (RGDW),Kd,[3]; [13],1 µM
same,Kd,"[3]; example of a lead peptide, read-out: affinity (Kd) for fibrinogen receptor",5 µM
RGDY: RGD containing peptide binding GpIIb IIIa,Kd,[3]; [13],1 µM
TTFKRIFLKRMPS,Kd,[4],1 µM
GRGDSP: lead peptide (Fb) for GpIIb IIIa,Kd,[3]; [13],1 µM
VAITVLVK,Kd,[5],1 µM
Gly-Pro-Arg [GPR],inhibition of fibrin polymerization,[1],inhibit fibrin polymerization
same,Kd,[2],50 µM
N=C1N[C@H]2[C@H](CS[C@H]2CCCCC(=O)O)N1 [imminobiotin],Kd,[6],~0.01 µM
TNYT: lead peptide for CD4,Kd,[7],1 µM
EGVYVHPV,Kd,[8],0.1 µM
"WTVPTA: lead peptide, antisense of GAVSTA RGD sequence, for fibronectin",Kd,[9],1 µM
TCVXNKYFSNIHW: lead peptide (urokinase) for urokinase receptor,Kd,[10],1 µM
MLFILIKRSRHF,Kd,[11],10 µM
RIFLKRMPSIR,Kd,[12],1 µM
